System: Arabidopsis
Assay: Ribo-seq and RNA-seq global translatome profiling (translational efficiency TE, mORF/uORF ribo-shift) upon elf18 treatment
Format: in vivo
Set-up: key to score (Ribo-shift): Up: ribo-shift up (i.e., increased mORF/uORF ratio); Down: ribo-shift down (i.e., decreased mORF/uORF ratio)
Settings: elf18 vs Mock; for score (TE change): translational efficiency fold change, listed as shows 5′ UTR of the transcript

B1: AT1G19270.1: 5′ UTR of transcript; DA1 (nucleic acid)
DNA: CGTGGGGAACGTTTTTTCCTGGAAGAAGAAGAAGAAGAGCTCAACAAGCTCAACGACCAAAAAACTTCGGACACGAAGACTTTTTAATTCATTTCTCCTCTTTTGTTTTTTTCGTTCCAAAATATTCGATACTCTCGATCTCTTCTTCGTGATCCTCATTAAATAAAAATACGATTTTTATTCTTTTTTTGTGAGTGCACCAAATTTTTTGACTTTGGATTAGCGTAGAATTCAAGCACATTCTGGGTTTATTCGTGTATGAGTAGACATTGATTTTGTCAAAGTTGCATTCTTTTATATAAAAAAAGTTTAATTTCCTTTTTTCTTTTCTTTTCTCTTTTTTTTTTTTTTCCCCCATGTTATAGATTCTTCCCCAAATTTTGAAGAAAGGAGAGAACTAAAGAGTCCTTTTTGAGATTCTTTTGCTGCTTCCCTTGCTTGATTAGATCATTTTTGTGATTCTGGATTTTGTGGGGGTTTCGTGAAGCTTATTGGGATCTTATCTGATTCAGGATTTTCTCAAGGCTGCATTGCCGTATGAGCAGATAGTTTTATTTAGGCATT
score (TE change): TEdown (389 genes displayed decreased TEfc (|z|≥1.5))

B2: AT4G24750.1: 5′ UTR of transcript; Rhodanese/Cell cycle control phosphatase superfamily protein (nucleic acid)
DNA: GAGTCTGGTTCGAAAAGACTGCTTCAATGAAGCCAAAACTATCCAATAACTCGAAATTGACTACTCTTTTCTTTTGTCTCTGTTGTTGATTCGCAAAGGCGAAGATTATCCATCTTCTCAGTTACTCCTACTGGAACCAAAAGCTCAGAACCTTAAAAC
score (TE change): TEdown (389 genes displayed decreased TEfc (|z|≥1.5))

B3: AT4G24750.1_1: uORF of AT4G24750.1; peptide SEQ ID NO: 26 (nucleic acid)
DNA: ATGAAGCCAAAACTATCCAATAACTCGAAATTGACTACTCTTTTCTTTTGTCTCTGTTGTTGA
modifications: listed as DNA, chemistry not fully specified
score (Ribo-shift) (shift of mORF/uORF ratio, per uORF): Down

B4: AT4G26080.1: 5′ UTR of transcript; Protein phosphatase 2C family protein (nucleic acid)
DNA: GAAGCAATTGTTGCATTAGCCTACCCATTTCCTCCTTCTTTCTCTCTTCTATCTGTGAACAAGGCACATTAGAACTCTTCTTTTCAACTTTTTTAGGTGTATATAGATGAATCTAGAAATAGTTTTATAGTTGGAAATTAATTGAAGAGAGAGAGATATTACTACACCAATCTTTTCAAGAGGTCCTAACGAATTACCCACAATCCAGGAAACCCTTATTGAAATTCAATTCATTTCTTTCTTTCTGTGTTTGTGATTTTCCCGGGAAATATTTTTGGGTATATGTCTCTCTGTTTTTGCTTTCCTTTTTCATAGGAGTCATGTGTTTCTTCTTGTCTTCCTAGCTTCTTCTAATAAAGTCCTTCTCTTGTGAAAATCTCTCGAATTTTCATTTTTGTTCCATTGGAGCTATCTTATAGATCACAACCAGAGAAAAAGATCAAATCTTTACCGTTA
score (TE change): TEdown (389 genes displayed decreased TEfc (|z|≥1.5))

B5: AT4G32660.1: 5′ UTR of transcript; Protein kinase superfamily protein (nucleic acid)
DNA: AATTGGTGGATGTCGTCGCGGTTCGACCCCAAGGGATTTGGCCGGTAAAATTATTGGGAGTTGTCTTTCTCTTGCACTCTCTCTAGTTCCAAACCCTAGCAATTCCTCTGTTTTCACCATTTTCGGAGATTATCACCTTCTCCCCGATTCGCCGCCTTGTGATTACATCTACGTAAAGAGTTTCTGGTAGAAATTTTCCCTCTTTTAGCTGCAGATTGGCATCAGATTCCGTTCTGGATGTGTCGGTGATCGATTTTCCGCGTCGGTG
score (TE change): TEup (448 had increased TEfc)

— patent US20190352664A1, “COMPOSITIONS AND METHODS FOR CONTROLLING GENE EXPRESSION” (priority 2017, published 2019)
